Measurements reported in IntAct's records for PubMed 8940099.

B1: NF-kappa-B inhibitor alpha (Homo sapiens), P25963 (parent)
chain: MFQAAERPQEWAMEGPRDGLKKERLLDDRHDSGLDSMKDEEYEQMVKELQEIRLEPQEVPRGSEPWKQQLTEDGDSFLHLAIIHEEKALTMEVIRQVKGDLAFLNFQNNLQQTPLHLAVITNQPEIAEALLGAGCDPELRDFRGNTPLHLACEQGCLASVGVLTQSCTTPHLHSILKATNYNGHTCLHLASIHGYLGIVELLVSLGADVNAQEPCNGRTALHLAVDLQNPDLVSLLLKCGADVNRVTYQGYSPYQLTWGRPSTRIQQQLGQLTLENLQMLPESEDEESYDTESEFTEFTEDELPYDDCVFGGQRLTL
partner: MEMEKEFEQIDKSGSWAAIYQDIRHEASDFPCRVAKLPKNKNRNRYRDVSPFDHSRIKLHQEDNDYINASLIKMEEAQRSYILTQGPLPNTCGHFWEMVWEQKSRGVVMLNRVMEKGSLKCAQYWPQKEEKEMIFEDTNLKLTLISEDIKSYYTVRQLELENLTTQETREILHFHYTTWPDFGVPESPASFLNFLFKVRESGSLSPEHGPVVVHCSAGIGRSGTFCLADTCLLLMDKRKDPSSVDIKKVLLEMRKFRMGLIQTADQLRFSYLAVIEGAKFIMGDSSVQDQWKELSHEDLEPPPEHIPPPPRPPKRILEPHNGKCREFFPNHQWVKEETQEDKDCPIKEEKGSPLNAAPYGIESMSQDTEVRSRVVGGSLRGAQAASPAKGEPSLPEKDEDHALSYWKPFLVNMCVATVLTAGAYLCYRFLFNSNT

Variants of: B1
Settings: with ptn1_human PTPN1, P18031

Variant | effect of a mutation on the interaction
Y42F | disrupting interaction
